Results reported in US11434299 (TENEOBIO, dated 2022).

T1: human BCMA (B-Cell Maturation Antigen) on NCI-H929 cells (human, UniProt Q02223 1-184)
T1 construct: whole, on cells; Endogenous BCMA on NCI-H929 myeloma cells; also called TNFRSF17; H929 cells (BCMA+, lambda-)
T1 sequence (looked up): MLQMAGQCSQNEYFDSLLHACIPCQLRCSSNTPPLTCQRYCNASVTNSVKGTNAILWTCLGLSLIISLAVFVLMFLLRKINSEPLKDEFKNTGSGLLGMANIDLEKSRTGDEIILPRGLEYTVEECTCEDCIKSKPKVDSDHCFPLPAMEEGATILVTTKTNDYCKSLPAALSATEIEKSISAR


Molecular target: T1, human BCMA (B-Cell Maturation Antigen) …
Test: flow cytometry, HEK supernatants on NCI-H929 cells (BCMA+)
Procedure: Supernatants of all antibodies were also tested by flow cytometry for binding to RPMI-8226 cells (BCMA+, lambda+) and H929 cells (BCMA+, lambda−). The samples were measured by flow cytometry using a Guava easyCyte 8HT instrument from EMD Millipore and analyzed using guavaSoft. Bound antibodies were detected with goat anti-human IgG F(ab')_2 conjugated to PE (Southern Biotech 2042-09). All antibodies were diluted in PBS with 1% BSA. Positive staining was determined by comparison to staining with a human IgG1 isotype control. The NCI-H929 and RPMI-8226 cell lines are human multiple myeloma lines expressing human BCMA, which were obtained from the American Type Culture Collection (ATCC) and cultured according to ATCC recommendations.

Row | Binder | binding result
1 | SEQ ID NO 29 (antibody, V domains shown, UniAb: CH1 deleted, no light chain; HEK supernatant) VH: EVQLLESGGGLVQPGGSLRLSCAASGFTFSSYAMNWVRQAPGKGLEWVSGIIGSGGSTYYADSVKGRFTISRDNSKNTLYLQMNSLRAEDTAVYYCVKDWNTTMITERGQGTLVTVSS | binds
2 | SEQ ID NO 48 (antibody, V domains shown, UniAb: CH1 deleted, no light chain; HEK supernatant) VH: EVQLLESGGGLVQPGGSLRLSCAASGFTFSNYAMTWIRQAPGKGLEWVSGITGDGGSTFYADSVKGRFTISRDNSKNTLYLQMNSLRAEDTAVYYCVKDWNTTMITERGQGTLVTVSS | binds
3 | SEQ ID NO 46 (antibody, V domains shown, UniAb: CH1 deleted, no light chain; HEK supernatant) VH: EVQLLESGGGLVQPGGSLRLSCAASGFTFSSYAMSWVRQAPGKGLEWVSGIIGSGGSTFYADSVKGRFTISRDNSKNTLYLQMNSLRAEDTAVYYCVKDWNTTMITERGQGTLVTVSS | binds
4 | SEQ ID NO 34 (antibody, V domains shown, UniAb: CH1 deleted, no light chain; HEK supernatant) VH: EVQLLESGGGLVQPGGSLRLSCAASGFTFSRYAMNWIRQAPGKGLEWVSGIVGSGGNTYYADSVKGRFSISRDNSKNTLYLQMNSLRAEDTAVYYCVKDWNTTMITERGQGTLVTVSS | binds
5 | SEQ ID NO 36 (antibody, V domains shown, UniAb: CH1 deleted, no light chain; HEK supernatant) VH: EVQLLESGGGLVQPGGSLRLSCAASGFTFSNYAMNWVRQAPGNGLEWVSGLTGSGGSTYYADSVKGRFTISRDNSKNTVYLQMNSLRAEDTAVYYCVKDWNTTMITERGQGTLVTVSS | binds
6 | SEQ ID NO 21 (antibody, V domains shown, UniAb: CH1 deleted, no light chain; HEK supernatant) VH: EVQLLESGGGLVQPGRSLRLSCAASGFTFTNYAMNWVRQAPGKGLEWVSGISGGGGSTYYADSVKGRFTISRDNSKNTLYLQMNSLRAEDTAVYYCVKDWNTTMITERGQGTLVTVSS | binds
7 | SEQ ID NO 23 (antibody, V domains shown, UniAb: CH1 deleted, no light chain; HEK supernatant) VH: EVQLLESGGGLVQPGGSLRLSCAASGFTFSSYAMSWVRQAPGKGLEWVSGITGDGGSTFYADSVKGRFTISRDNSKNTLYLQMNSLRAEDTAVYYCVKDWNTTMITERGQGTLVTVSS | binds
8 | SEQ ID NO 39 (antibody, V domains shown, UniAb: CH1 deleted, no light chain; HEK supernatant) VH: EVQLLESGGGLVQPGGSLRLSCAASGFTFSNYAMSWVRQAPGKGLEWVSGIIGSGGSTYYADSVKGRFSISRDNSKNTLYLQMNSLRAEDTAVYYCVKDWNTTMITERGQGTLVTVSS | binds
9 | SEQ ID NO 45 (antibody, V domains shown, UniAb: CH1 deleted, no light chain; HEK supernatant) VH: EVQLLESGGGVVQPGRSLRLSCAASGFTFSSYAMNWVRQAPGKGLEWVSGIIGSGGSTYYADSVKGRFTISRDNSKNTLYLQMNSLRAEDTAVYYCVKDWNTTMITERGQGTLVTVSS | binds
10 | SEQ ID NO 32 (antibody, V domains shown, UniAb: CH1 deleted, no light chain; HEK supernatant) VH: EVQLLESGGGLVQPGGSLRLSCAASGFTFSSYAMSWVRQAPGKGLEWVSGLTGSGDSTYYADSVKGRFTISRDNDKNTVYLQMNSLRAEDTAVYYCVKDWNTTMITERGQGTLVTVSS | binds
11 | SEQ ID NO 33 (antibody, V domains shown, UniAb: CH1 deleted, no light chain; HEK supernatant) VH: EVQLLESGGGLVQPGGSLRLSCAASGFTFSNYAMTWIRQAPGKGLEWVSGITGDGGSTFYADSVKGRFSISRDNSKNTLDLQMNSLRAEDTAVYYCVKDWNTTMITERGQGTLVTVSS | binds
12 | SEQ ID NO 37 (antibody, V domains shown, UniAb: CH1 deleted, no light chain; HEK supernatant) VH: EVQLLESGGGLVQPGGSLRLSCAASGFTFTNYAMNWVRQAPGKGLEWVSGIIGSGGSTYYADSVKGRFTISRDNSKNTLYLQMNSLRAEDTAVYYCVKDWNTTMITERGQGTLVTVSS | binds
13 | SEQ ID NO 44 (antibody, V domains shown, UniAb: CH1 deleted, no light chain; HEK supernatant) VH: EVQLLESGGGLVQPGGSLRLSCAASGFTFSNYAMSWVRQAPGKGLEWVSGIIGSGGSTYYADSVKGRFTISRDNSKNTLYLQMNSLRAEDTAVYYCVKDWNTTMITERGQGTLVTVSS | binds
14 | SEQ ID NO 27 (antibody, V domains shown, UniAb: CH1 deleted, no light chain; HEK supernatant) VH: EVQLLESGGGLVQPGGSLRLSCAASGFTFSSYAMNWVRQAPGKGLEWVSGLTGNGDSTYYADSVKGRFTISRDNSKNTVYLQMNSLRAEDTAVYYCVKDWNTTMITERGQGTLVTVSS | binds
15 | SEQ ID NO 52 (antibody, V domains shown, UniAb: CH1 deleted, no light chain; HEK supernatant) VH: EVQLLESGGGLVQPGGSLRLSCAASGFTFSSYAMNWVRQAPGKGLEWVSGIVGGGGTSYYADSVRGRFTISRDNSKNTLYLQMNSLRAEDTAVYYCVKDWNTTMITERGQGTLVTVSS | binds
16 | SEQ ID NO 30 (antibody, V domains shown, UniAb: CH1 deleted, no light chain; HEK supernatant) VH: EVQLLESGGGLVQPGGSLRLSCAASGFTFSSYAMNWVRQAPGKGLEWVSGIIGSGGSTYYADSVKGRFTISRDNSKNTVYLQMNSLRAEDTAVYYCVKDWNTTMITERGQGTLVTVSS | binds

Row | Binder | binding result
17 | SEQ ID NO 35 (antibody, V domains shown, UniAb: CH1 deleted, no light chain; HEK supernatant) VH: EVQLLESGGGLVQPGGSLRLSCAASGFTFSSYAMSWVRQAPGKGLEWVSGITGSGGSTYYADSVKGRFSISRDNSKNTLDLQMNSLRAEDTAVYYCVKDWNTTMITERGQGTLVTVSS | binds
18 | SEQ ID NO 47 (antibody, V domains shown, UniAb: CH1 deleted, no light chain; HEK supernatant) VH: EVQLLESGGGLVQPGESLRLSCAASGFTFSNYAMNWVRQAPGKGLEWVSGIVGGGGTSYYADSVRGRFTISRDNSKNTLYLQMNSLRAEDTAVYYCVKDWNTTMITERGQGTLVTVSS | binds
19 | SEQ ID NO 28 (antibody, V domains shown, UniAb: CH1 deleted, no light chain; HEK supernatant) VH: EVQLLESGGGLVQPGGSLRLSCAASGFTFSSYAMNWVRQAPGKGLEWVSGITGSGGSTYYADSVKGRFSISRDNSKNTLDLQMNSLRAEDTAVYYCVKDWNTTMITERGQGTLVTVSS | binds
20 | SEQ ID NO 20 (antibody, V domains shown, UniAb: CH1 deleted, no light chain; HEK supernatant) VH: EVQLLESGGGLAQPGGSLRLSCAASGFTFSSYAMNWIRQAPGKGLEWVSGISGSGGSTYYADSVKGRFTISRDNSKNTVYLQMNSLRAEDTAVYYCVKDWNTTMITERGQGTLVTVSS | binds
21 | SEQ ID NO 42 (antibody, V domains shown, UniAb: CH1 deleted, no light chain; HEK supernatant) VH: EVQLLESGGGLVQPGGSLRLSCAASGFTFSNYAMNWVRQAPGKGLEWVSGIIGSGGSTYYADSVKGRFTISRDNSKNTLYLQMNSLRAEDTAVYYCVKDWNTTMITERGQGTLVTVSS | binds
22 | SEQ ID NO 40 (antibody, V domains shown, UniAb: CH1 deleted, no light chain; HEK supernatant) VH: EVQLLESGGGLVQPGGSLRLSCAASGFTFSSYAMSWVRQAPGKGLEWVSGIIGSGGSTYYADSVKGRFTISRDNSKNTLYLQMNSLRVEDTAVYYCVKDWNTTMITERGQGTLVTVSS | binds
23 | SEQ ID NO 41 (antibody, V domains shown, UniAb: CH1 deleted, no light chain; HEK supernatant) VH: EVQLLESGGGVVQPGRSLRLSCAASGFTFSNYAMNWVRQAPGKGLEWVSGIIGSGGSTYYADSVKGRFTISRDNSKNTLYLQMNSLRAEDTAVYYCVKDWNTTMITERGQGTLVTVSS | binds
24 | SEQ ID NO 49 (antibody, V domains shown, UniAb: CH1 deleted, no light chain; HEK supernatant) VH: EVQLLESGGGLVQPGGSLRLSCAASGFTFSSYAMTWIRQAPGKGLEWVSGIVGGGGTSYYADSVRGRFTISRDNSKNTLYLQMNSLRAEDTAVYYCVKDWNTTMITERGQGTLVTVSS | binds
25 | SEQ ID NO 22 (antibody, V domains shown, UniAb: CH1 deleted, no light chain; HEK supernatant) VH: EVQLLESGGGLVQPGGSLRLSCAASGFTFSSYAMTWVRQAPGKGLEWVSGITENGGSTYYADSVKGRFTISRDNSKNTLDLQMNSLRAEDTAVYYCVKDWNTTMITERGQGTLVTVSS | binds
26 | SEQ ID NO 24 (antibody, V domains shown, UniAb: CH1 deleted, no light chain; HEK supernatant) VH: EVQLLESGGGLVQPGGSLRLSCAASGFTFSSYAMSWVRQAPGKGLEWVSGIIGSGGSTYYADSVKGRFSISRDNSKNTLDLQMNSLRAEDTAVYYCVKDWNTTMITERGQGTLVTVSS | binds
27 | SEQ ID NO 50 (antibody, V domains shown, UniAb: CH1 deleted, no light chain; HEK supernatant) VH: EVQLLESGGGLVQPGGSLRLSCAASGFTFSSYAMSWVRQAPGKGLEWVSGIIGSGGTTYYADSVKGRFTISRDNSKNTLNLQMNSLRAEDTAIYYCVKDWNTTMITERGQGTLVTVSS | binds
28 | SEQ ID NO 43 (antibody, V domains shown, UniAb: CH1 deleted, no light chain; HEK supernatant) VH: EVQLLESGGGLVQPGGSLTLSCAASGFTFSNYAMNWVRQAPGKGLEWVSGIIGSGATTYYADSVKGRFTISRDNSKNTLNLQMNSLRAEDTAIYYCVKDWNTTMITERGQGTLVTVSS | binds
29 | SEQ ID NO 51 (antibody, V domains shown, UniAb: CH1 deleted, no light chain; HEK supernatant) VH: EVQLLESGGGLVQPGGSLRLSCAASGFTFSNYAMNWVRQAPGKGLEWVSGITGSGGSTYYADSVKGRFTISRDNSKNTLYLQMNSLRVEDTAVYYCVKDWNTTMITERGQGTLVTVSS | binds
30 | SEQ ID NO 31 (antibody, V domains shown, UniAb: CH1 deleted, no light chain; HEK supernatant) VH: EVQLLESGGGLVQPGGSLRLSCAASGFTFSSYAMNWVRQAPGKGLEWVSGITGSGDSTYYAASVKGRFSISRDNSQNTLDLQMNSLRAEDTAVYYCVKDWNTTMITERGQGTLVTVSS | binds
31 | SEQ ID NO 38 (antibody, V domains shown, UniAb: CH1 deleted, no light chain; HEK supernatant) VH: EVQLLESGGGVVQPGRSLRLSCAASGFTFSSYAMSWVRQAPGKGLEWVSGIIGSGGSTYYADSVKGRFTISRDNSKNTLYLQMNSLRAEDTAVYYCVKDWNTTMITERGQGTLVTVSS | binds
